Results as given in patent US20240002500A1 (GUANGDONG FAPON BIOPHARMA, published 2024).

T1: full-length human TIGIT on cells (human, UniProt Q495A1 22-244)
T1 construct: whole, on cells; The same protein is used for CHO-hTIGIT, PBMC and NK92-hTIGIT; the cells are named under assay; also called CHO-hTIGIT; hTIGIT
T1 sequence (looked up): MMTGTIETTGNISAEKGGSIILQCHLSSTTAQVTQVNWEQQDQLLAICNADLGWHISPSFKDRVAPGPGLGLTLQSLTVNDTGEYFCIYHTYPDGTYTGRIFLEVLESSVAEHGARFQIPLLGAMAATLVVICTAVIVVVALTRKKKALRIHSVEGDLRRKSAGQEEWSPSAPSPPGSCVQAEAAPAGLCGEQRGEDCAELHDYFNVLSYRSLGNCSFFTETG

T2: hTIGIT-hFc (human, UniProt Q495A1 22-141)
T2 construct: also called antigen protein hTIGIT-hFc; human TIGIT recombinant protein carrying a human Fc tag; not shown: human Fc tag
T2 sequence (looked up): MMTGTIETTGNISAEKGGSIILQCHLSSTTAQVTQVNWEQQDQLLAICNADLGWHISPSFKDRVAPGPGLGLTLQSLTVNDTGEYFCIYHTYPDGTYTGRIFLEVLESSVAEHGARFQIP


Experiments:
[1] = target: T1, full-length human TIGIT on cells; assay: FACS titration on CHO-hTIGIT cells, PE goat anti-mouse IgG
Description: The CHO-engineered cells CHO-hTIGIT cells recombinantly expressing full-length human TIGIT to be detected were counted, centrifuged at 300 g for 5 min, resuspended in an FCM buffer and cell density was adjusted to 4E+06 cell/mL for later use. A sample to be detected (including a positive control antibody and a mouse monoclonal antibody) was diluted with the FCM buffer to 20 μg/mL, and then the FCM buffer was used to perform 3× serial dilutions of 12 concentration points; and the isotype control antibody was diluted with the FCM buffer to 20 μg/mL. According to an experimental design, in each well, 50 μL of the antibody and 50 μL of the cell (the amount of each cell added into a 96-well V-shaped plate being 2E+05 cells/well) were respectively added in the 96-well V-shaped plate; and incubation in dark was performed on ice for 30 min. Centrifugation (300 g/5 min) was performed; supernatant was discarded; 200 μL of the FCM buffer was added for washing once; centrifugation (300 g/5 min) was performed; and the supernatant was discarded. […] Centrifugation (300 g/5 min) was performed; supernatant was discarded; 200 μL of the FCM buffer was added once for washing once; centrifugation (300 g/5 min) was performed; and the supernatant was discarded. 100 μL of the 1×PBS was added for resuspending, and on-machine detection was performed.

[2] = target: T2, hTIGIT-hFc; assay: FACS blocking: antibody preincubated with hTIGIT-hFc, then CHO-hPVR cells, PE anti-human IgG Fc; blocked partner PVR on cells
Description: The CHO-engineered cells CHO-hPVR cells recombinantly expressing full-length human PVR were counted centrifugated at 300 g for 5 min, resuspended with an FCM buffer, the cells were added to the 96-well V-shaped plate; the volume of each cell added into a 96-well V-shaped plate was 2E+05 cell/well (being added in 50 μL/well); and incubation was performed in dark on ice for 30 min. Centrifugation (300 g/5 min) was performed; supernatant was discarded; 200 μL of the FCM buffer was added for washing once; centrifugation (300 g/5 min) was performed; and the supernatant was discarded. Secondary antibodies (PE anti-human IgG Fc, 1:500 dilution) were added to the 96-well V-shaped plate (in 100 μL/well); and incubation was performed in dark on ice for 30 min. Centrifugation (300 g/5 min) was performed; supernatant was discarded; 200 μL of the FCM buffer was added for washing once; centrifugation (300 g/5 min) was performed; and the supernatant was discarded. 100 μL of the 1×PBS was added for resuspending, and on-machine detection was performed.

[3] = target: T2, hTIGIT-hFc; assay: FACS blocking: hTIGIT-hFc bound on CHO-hCD112 cells, then antibody, APC anti-human IgG Fc; blocked partner CD112; unit from the x axis Log[µg/mL]
Description: The CHO-engineered cell CHO-hCD112 cells recombinantly expressing full-length human CD112 were counted; centrifugated at 300 g for 5 min; resuspended with an FCM buffer; and cell density was adjusted to 4E+06 cell/mL for later use. […] According to an experimental design, in each well, 50 μL of the antigen protein and 50 μL of the cell (the volume of each cell added into a 96-well V-shaped plate being 2E+05 cell/well) were respectively added in the 96-well V-shaped plate; and incubation was performed in dark on ice for 30 min. Centrifugation (300 g/5 min) was performed; supernatant was discarded; 200 μL of the FCM buffer was added for washing once; centrifugation (300 g/5 min) was performed; and the supernatant was discarded. The antibody was added to the 96-well V-shaped plate (in 100 μL/well); and incubation was performed in dark on ice for 30 min. Centrifugation (300 g/5 min) was performed; supernatant was discarded; 200 μL of the FCM buffer was added for washing once; centrifugation (300 g/5 min) was performed; and the supernatant was discarded. Secondary antibodies (APC anti-human IgG Fc, 1:500 dilution) were added to the 96-well V-shaped plate (in 100 μL/well); and incubation was performed in dark on ice for 30 min. Centrifugation (300 g/5 min) was performed; supernatant was discarded; 200 μL of the FCM buffer was added for washing once; centrifugation (300 g/5 min) was performed; and the supernatant was discarded. 100 μL of the 1×PBS was added for resuspending, and on-machine detection was performed.

| EC50 [1] | IC50 (read off the curve) [2] | IC50 [3] | Binder |
| --- | --- | --- | --- |
| 0.197 nM | ~1 nM | 0.143 µg/mL | Tigit-5 mouse monoclonal antibody (antibody, V domains shown, Mouse monoclonal antibody from hybridoma) VH: QVQLQQPGAELVRPGASVKLSCKASGYSFTSYWMNWVKQRPGQGLEWIGMIRPSDSETRLNQMFKDKATLTVDKSSSTAYMQLSSPTSDDSAVYYCAGIHDYGHGAYWGQGTLVTVSA VL: DIQMIQSPASLSVSVGETVTITCRASENIYSNLAWYQQKQGKSPQLLVYAASHLPDGVPSRFSGSGSGTQYSLKINSLQSEDFGSYYCQHFWGTPRTFGGGTKLEIKR |
| 0.383 nM | ~1 nM | 0.265 µg/mL | 3Tigit-16 mouse monoclonal antibody (antibody, V domains shown, Mouse monoclonal antibody from hybridoma) VH: EVQLQQSGPELVKPGASVKMSCKASGFTFTDYFMDWVKQSRGASFEWIGRLNPNNGRTSYNQKFKGKATLTVDKSSSTAYMELNSLTSEDSAVYYCARGDLGRWYFDVWGAGTTVTVSS VL: QIVLTQSPAIMSASPGEKVTMTCSASSSVSYMHWYQQKSGTSPKRWIYDTSKLASGVPTRFSGSGSGTSYSLTISSMEAEDAASYFCQQWSSNSLTFGAGTKLELKR |
| 0.388 nM | ~1 nM | 0.196 µg/mL | 3Tigit-29 mouse monoclonal antibody (antibody, V domains shown, Mouse monoclonal antibody from hybridoma) VH: EVQLQQSGPELVKPGASVKISCKASGYTFTDYNMHWVKQSLGKSLEWIGYVNSFNGNTGYSQKFKSKVTLTVDRSSRTAYMDLRSLTSEDSAVFYCARSSRGGFAYWGQGTLVTVSA VL: QIVLTQSPAIMSASPGEKVTMTCSASSSVSYMHWYQQKSGTSPKRWIYDTSKLASGVPARFSGSVSGTSYSLTISSMEAEDAATYYCQQWSSNSLTFGAGTKLELKR |
| 0.473 nM | – | 0.191 µg/mL | 3Tigit-12 mouse monoclonal antibody (antibody, V domains shown, Mouse monoclonal antibody from hybridoma) VH: QVQLQQSGAELVRPGTSVKMSCKAAGYTFTNYWIGWVKQRPGHGLEWIGDIYPGGGYTNYDEKFKGKATLTADTSSRTAYMQLSSLTSEDSAIYHCVNGGYGSTYGYFDVWGAGTTVTVSS VL: DIVMSQSPSSLPVSVGEKVTMSCKSSQSLLFSSDQKNYLAWYQQKPGQSPKLLIYWASTRESGVPDRLTGSGSGTDFTLTISSVKAEDLAVYYCQQYHKYPFTFGGGTKLEIKR |
| 0.452 nM | – | – | 14Tigit-1-1 mouse monoclonal antibody (antibody, V domains shown, Mouse monoclonal antibody from hybridoma) VH: DVQLQESGPGLVKPSQSLSLTCTVTGYSITSDYAWNWIRQFPGNKLEWMGYISYSGSTRSNPSLKSRISITRDTSKNQFFLQLNSMTAEDTATYYCGGWEVRNYYAMDYWGQGTSVTVSS VL: DIVMTQSHKFMSTSVGDRVSITCKASQHVSTAVAWYQQKPGQSPKLLIYSASYRYTGVPDRFTGSGSGTDFTFTISSVQAEDLAVYYCQQHYNTPWTFGGGTKLEIKR |
